Laboratory results as given in patent US20240309105A1 (Boehringer Ingelheim, published 2024).
Changes are numbered by the printed parent chain. Blank lines part the entries; values can stand above or below the molecule they belong to.

Columns and labels:
human CD40 on cells [1] = biological target: T1, human CD40 on cells (human, UniProt P25942 21-277); test: FACS on B cells in whole blood of healthy subjects; 240 mg SC dose group, Day 78
human CD40 on cells [2] = biological target: T1, human CD40 on cells; test: FACS on B cells in whole blood of healthy subjects; 180 mg SC dose group, Day 64
human CD40 on cells [3] = biological target: T1, human CD40 on cells; test: FACS on B cells in whole blood of healthy subjects, free CD40 detected with excess FITC-labeled antibody; 72 hours after a single 80 mg SC dose
human CD40 on cells [4] = biological target: T1, human CD40 on cells; test: binding to human B cells
human CD40 on cells [5] = biological target: T1, human CD40 on cells; test: FACS on B cells in whole blood of healthy subjects; after the fourth once-weekly SC dose, all doses, until Day 39
human CD40 on cells [6] = biological target: T1, human CD40 on cells; test: cell-based or functional assay
human CD40 on cells [7] = biological target: T1, human CD40 on cells; test: FACS on B cells in whole blood of healthy subjects, free CD40 detected with excess FITC-labeled antibody; 72 hours after a single 120-240 mg SC dose
[8] = biological target: T2, cynomolgus monkey CD40 on cells (cynomolgus monkey, UniProt G7PG38 21-278); test: ratio of binding EC50, human over cynomolgus; ratio > 1 means increased binding to Cyno compared to Human
T2 construct: whole, on cells; Cell surface CD40 on cynomolgus B cells and platelets; also called Cyno CD40; CD40 on cynomolgus monkey B cells and platelets

human CD40 on cells [9] = biological target: T1, human CD40 on cells; test: cell binding, flow cytometry (cell line not given)
Method: The specific binding of humanized antibodies to cellular CD40 was analyzed by flow cytometry using human CD40-transfected HEK293 cells. Concentration-dependent binding of Antibody A, Antibody B, and Antibody C was observed. […] No binding was detected on CD40 negative cells such as non-transfected HEK293 cells or the T cell line HSB-2 thus confirming selective binding to CD40 (data not shown).

human CD40-Fc protein = biological target: T3, human CD40-Fc protein (human, UniProt P25942 21-193); test: ForteBio Octet, human CD40-Fc, with and without human serum
T3 construct: also called recombinant CD40 protein; not shown: Fc part
T3 sequence (P25942 21-193 limits assumed): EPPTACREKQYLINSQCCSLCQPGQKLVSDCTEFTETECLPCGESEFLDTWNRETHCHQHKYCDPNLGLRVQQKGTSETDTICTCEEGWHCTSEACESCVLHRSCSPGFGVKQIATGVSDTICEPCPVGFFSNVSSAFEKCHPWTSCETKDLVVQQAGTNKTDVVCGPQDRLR
Method: Due to antibody and CD40-Fc bivalency avidity effects prevent Kds below 100 pM from being determined accurately. In addition, the binding to CD40-Fc was analyzed in the absence and presence of 50% human serum and no significant effect of serum on binding was observed (data not shown)

human CD40 on cells [10] = biological target: T1, human CD40 on cells; test: cell-based or functional assay; remark: listed apart in the source
human CD40 on cells [11] = biological target: T1, human CD40 on cells; test: FITC-labeled antibody on Ramos cells
human CD40 on cells [12] = biological target: T1, human CD40 on cells; test: flow cytometry, human CD40-transfected HEK293 cells
human CD40 on cells [13] = biological target: T1, human CD40 on cells; test: cell-based or functional assay; remark: listed apart in the source

T1 sequence (P25942 21-277): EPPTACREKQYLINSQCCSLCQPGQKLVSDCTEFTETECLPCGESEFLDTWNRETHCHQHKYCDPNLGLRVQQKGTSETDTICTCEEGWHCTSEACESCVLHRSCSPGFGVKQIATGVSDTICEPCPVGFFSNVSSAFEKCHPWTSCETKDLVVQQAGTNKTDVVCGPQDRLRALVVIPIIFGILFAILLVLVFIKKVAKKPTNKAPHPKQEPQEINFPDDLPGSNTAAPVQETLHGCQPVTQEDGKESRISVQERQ

CD40 receptor occupancy (RO) (human CD40 on cells [1]): 68%
CD40 receptor occupancy (RO) (human CD40 on cells [2]): 79%
CD40 receptor occupancy (RO) (human CD40 on cells [3]): 89%
EC90 (human CD40 on cells [4]): 6.85 nM
CD40 receptor occupancy (RO) (human CD40 on cells [5]): > 90%
inhibition of CD54 upregulation after the fourth once-weekly SC dose, all doses, up to Day 39 (human CD40 on cells [6]): > 90%
inhibition of CD54 upregulation, 80 mg SC single dose, first post-dose measurement (72 hours) (human CD40 on cells [6]): 87%
inhibition of CD54 upregulation, 80 mg SC, Day 7 post dose (human CD40 on cells [6]): 95%
inhibition of CD54 upregulation, 180 mg group, Day 64 (human CD40 on cells [6]): 89%
inhibition of CD54 upregulation, 240 mg group, Day 78 (human CD40 on cells [6]): 51%
inhibition of CD54 upregulation, all other doses (120-240 mg SC), from 72 hours onwards (human CD40 on cells [6]): 95%
inhibition of CD54 upregulation, higher doses (120-240 mg SC), 72 hours after the first dose (human CD40 on cells [6]): > 90%
CD40 receptor occupancy (RO) (human CD40 on cells [7]): 94 to 95%
Molecule: an antibody of the present invention (BI 655064)

EC50 (human CD40 on cells [12]): ~1 nM
B cell proliferation assay, average IC50 (human CD40 on cells [13]): ~0.02 nM
EC50 (human CD40 on cells [9]): 0.9 nM
Kd (human CD40-Fc protein): < 0.1 nM
B cell proliferation: Agonism (SI*) (human CD40 on cells [10]): < 2 SI (Stimulation Index)
B4: 4D11 (Kirin/Astellas) anti-CD40 antibody (antibody, V domains shown)
VH: QLQLQESGPGLLKPSETLSLTCTVSGGSISSPGYYGGWIRQPPGKGLEWIGSIYKSGSTYHNPSLKSRVTISVDTSKNQFSLKLSSVTAADTAVYYCTRPVVRYFGWFDPWGQGTLVTVSS
VL: AIQLTQSPSSLSASVGDRVTITCRASQGISSALAWYQQKPGKAPKLLIYDASNLESGVPSRFSGSGSGTDFTLTISSLQPEDFATYYCQQFNSYPTFGQGTKVEIK

The next lines start with the molecule.

B1: Antibody A (antibody, human IgG1, kappa, L234A L235A, V domains shown)
VH: EVQLVESGGGLVKPGGSLRLSCAASGFTFSDYGMHWVRQAPGKGLEWVAYISSGNRIIYYADTVKGRFTISRDNAKNSLYLQMNSLRAEDTALYYCARQDGYRYAMDYWAQGTLVTVSS
VL: DIVMTQSPDSLAVSLGERATMSCKSSQSLLNSGNQKNYLTWHQQKPGQPPKLLIYWTSTRESGVPDRFSGSGSGTDFTLTISSLQAEDVAVYYCQNDYTYPLTFGGGTKVEIKR
notes: also called humanized 20E2
Species cross-react.: Hu/Cyno Binding (EC50 ratios) [8]: 3 ratio
EC50 (human CD40 on cells [9]): 1.2 nM
Kd (human CD40-Fc protein): < 0.1 nM
B cell proliferation: Agonism (SI*) (human CD40 on cells [10]): < 2 SI (Stimulation Index)

B2: Antibody B (antibody, human IgG1, kappa, L234A L235A, V domains shown)
VH: B1 VH with L93V, A110G
VL: B1 VL with R18K, A19V, M21I, S22N
notes: also called humanized 20E2
Species cross-react.: Hu/Cyno Binding (EC50 ratios) [8]: 2 ratio
EC50 (human CD40 on cells [9]): 1.5 nM
Kd (human CD40-Fc protein): < 0.1 nM
B cell proliferation: Agonism (SI*) (human CD40 on cells [10]): < 2 SI (Stimulation Index)

B3: 2H11 (antibody, V domains shown)
VH: EVQLQQSGAELVRPGASVKLSCTASGFNIKDYYVHWVKQRPEKGLEWIGRIDPEDGDSKYAPKFQGKATMTADTSSNTAYLHLSSLTSEDTAVYYCTTSYYVGTYGYWGQGTTLTVSS
VL: QIVLTQSPAIMSASPGEKVTITCSASSSVSYMLWFQQKPGTSPKLWIYSTSNLASGVPARFGGSGSGTSYSLTISRMEAEDAATYYCQQRTFYPYTFGGGTKLEIK
notes: Mouse monoclonal antibody; also called murine anti-CD40 mAb 2H11
binding result (human CD40 on cells [11]): binds

B5: Antibody C (antibody, human IgG1, kappa, L234A L235A, V domains shown)
VH: QVQLVQSGAEVKKPGASVKVSCTASGFNIKDYYVHWVKQAPGQGLEWMGRIDPEDGDSKYAPKFQGKATMTADTSTSTVYMELSSLRSEDTAVYYCTTSYYVGTYGYWGQGTLVTVSS
VL: DIQMTQSPSSLSASVGDRVTITCSASSSVSYMLWFQQKPGKAPKLLIYSTSNLASGVPSRFSGSGSGTDFTLTISSLQPEDFATYYCQQRTFYPYTFGGGTKVEIKR
notes: also called humanized 2H11
Species cross-react.: Hu/Cyno Binding (EC50 ratios) [8]: 1 ratio
EC50 (human CD40 on cells [9]): 1.7 nM
Kd (human CD40-Fc protein): < 0.1 nM
B cell proliferation: Agonism (SI*) (human CD40 on cells [10]): < 2 SI (Stimulation Index)
